From patent US20260158070A1, “COMPOSITIONS AND METHODS FOR THE TREATMENT AND DIAGNOSIS OF CANCERS ASSOCIATED WITH SURFACE K-RAS” (UNIVERSITY OF MARYLAND, BALTIMORE, priority 2023, published 2026) come the findings set out here.

Experiment [1] has as its system Panc-1 (K-Ras G12D mutant). The experiment can be described thus: Growth and viability of pancreatic cancer cells cultured with R11.1.6 constructs (cell count, Trypan blue). The experiment is classed as cell-based, human. As to conditions: Panc-1, 20,000 cells/well, counted after 5 days of culture. As for the experimental part:
We next evaluated growth as well as viability of two pancreatic cancer cell lines driven by either G12D (Panc-1) or G12C (MiaPaca-2) mutant K-Ras in vitro. We plated 20,000 cells/well in Dulbecco's modified Eagles media (DMEM) with 10% fetal bovine serum (FBS) in a flat bottom 96 well plate and counted cells after 5 days of culture. Viability of cells were calculated based on Trypan blue dye exclusion method, where dead cells were blue due to uptake of the viability dye and live cells were not stained. Viability was measured by using Countess II FL cell viability and cell counter instrument by Invitrogen (ThermoFisher USA).
Further evaluation of growth inhibition was performed with control Sulfolobus solfataricus-derived proteins of similar molecular weight. […] We started with 200,000 cells in a 96 well V-bottom plate and used BD phosflow buffer set III (BD biosciences, catalog number 558050) to stabilize and optimize the phosphor moiety. Next, we stained the cells with anti-phospho-Akt (ser473, Clone D9E) PE conjugated (Cell Signaling Technologies, Catalog number 5315S) at a concentration of 0.125 ug/100 ul or anti-phosho-ERK1/2, PE conjugated (ThermoFisher USA catalog number 12-9109-42) at a concentration of 0.125 ug/100 ul. Cells were washed in FACS staining buffer and run in a LSR Fortessa II flow cytometer (BD Biosciences, USA). Acquisition was done was using FACS DIVA software (BD Biosciences) and analysis was performed in FlowJo software (Tree Star, OR, USA). This was a significant finding as both Akt and ERK1/2 are important downstream molecules of K-Ras signaling, like that described for small molecule inhibitors of K-Ras (PMID: 12509763) (FIG. 1g).

For experiment [2], the system named is Panc-1 (G12D mutant K-Ras). As to the kind of experiment: Localization / surface binding of His-tagged constructs by anti-His flow cytometry and confocal microscopy. The experiment is classed as cell-based, human. An excerpt: However, we considered that the small 7 kDa size of this scaffolding protein and disorganized cell membrane of malignantly transformed cells may allow for cytoplasmic penetration even in the absence of a cell penetrating peptide. To evaluate this possibility, we explored the cellular location of the R11.1.6 constructs by flow cytometry and confocal microscopy. For flow cytometry experiments, cells were stained first with Live/Dead far red fixable staining kit (ThermoFisher USA, catalog number L10120). Specifically, 0.2-0.4×10^6 cells were plated in a V bottom plate and 100 ul of the dye (1:1000 dilution of stock concentration following manufacturer's protocol) was added to each well and cells incubated in room temperature for 15 mins. Next cells were washed with PBS containing 2.5% FBS and 0.1% sodium azide (FACS buffer). Cells were then surface stained by adding 100 ul/well of anti-His PE labelled antibody (mouse anti-human antibody, BioLegend, CA, USA Catalog #362603) at a concentration of 10 μg/ml. Cells were washed twice with FACS buffer and fixed by cytofix buffer (BD biosciences catalog number 554655). […] Cells were acquired using LSR Fortessa II flow cytometer using FACS DIVA software (BD Biosciences USA) and analyzed using FlowJo (Tree Star USA). […]

B1: M11.1.2: a scaffolding protein that binds mouse serum albumin (SEQ ID NO: 7) (protein)
chain: ATVKYTYRGEEKRVDISKIKWVNRWGQHLAFKYDKGGGAAGYGWVSEKDAPKELLQMLEKR
For B1, the growth and viability entry in experiment [1] is listed as “none of these control constructs could inhibit tumor growth”.

B2: mutated form of R11.1.6: R11.1.6 with codons in the regions that contact the K-RAS mutant scrambled to prevent binding (SEQ ID NO: 6) (protein)
chain: ATVKFTHQGEEKQVDISKIKFVWRKGYVRIWGYDEDGGWGAGKYVSEKDAPKELLQMLKKR
With B2, the growth and viability entry in experiment [1] is reported as “none of these control constructs could inhibit tumor growth”.

B3: E11.4.1: scaffold protein which binds human EGFR (SEQ ID NO: 8) (protein)
chain: ATVKFTYQGEEKQVDISKIMYVIRGGQRIAFGYDEGDGAWGDGIVSEKDAPKELLQMLEKQ
Turning to B3, the “binding to the tumor cell surface (anti-His staining)” value in experiment [2] is “bind to the surface of tumor cells”. Moreover, the growth and viability entry in experiment [1] was “none of these control constructs could inhibit tumor growth”.
